This passage reports β-galactosidase (Miller units) results from publication PMC2064056.

The target in test [1] is LF1p (aa 1-330), GAL4 two-hybrid fusion (C. reinhardtii) (UniProt Q7XJJ6). The experiment in a line: two-hybrid.
Test [2] addresses LF2p, full-length coding region, GAL4 two-hybrid fusion (C. reinhardtii) (UniProt A0MM70). The experiment in a line: two-hybrid.

With “LF3p, full-length coding region, GAL4 two-hybrid fusion (natural protein)”, the results for the β-galactosidase (Miller units) in test [1] and in test [2] were 61.1 Miller units and 15.8 Miller units, respectively.
